Four molecules from article PMC5364666, “Human MFAP1 is a cryptic ortholog of the Saccharomyces cerevisiae Spp381 splicing factor” (BMC Evolutionary Biology, 2017) can be followed below.

B2: S. cerevisiae Prp38 (pre-mRNA processing factor 38 domain containing protein), full-length wild type (natural protein, UniProt Q00723 1-242, looked up)
chain: MAVNEFQVESNISPKQLNNQSVSLVIPRLTRDKIHNSMYYKVNLSNESLRGNTMVELLKVMIGAFGTIKGQNGHLHMMVLGGIEFKCILMKLIEIRPNFQQLNFLLNVKNENGFDSKYIIALLLVYARLQYYYLNGNNKNDDDENDLIKLFKVQLYKYSQHYFKLKSFPLQVDCFAHSYNEELCIIHIDELVDWLATQDHIWGIPLGKCQWNKIYNSDEESSSSESESNGDSEDDNDTSSES
notes: Prp38, S. cerevisiae, ORF amplified from genomic DNA; also called scPrp38; source: E. coli Rosetta 2 (DE3) or BL21 (DE3) RIL, purified (Ni-NTA, TEV cleavage, SEC); not shown: His6, N-terminal, cleaved

Common to all, as to conditions: both partners purified
The target of assay [1] is B2. In words: SEC; analytical gel filtration of two proteins: 50 uM each, equimolar, incubated 30 min at 4 °C in SEC buffer (10 mM Tris-HCl pH 8.0, 300 mM NaCl, 0.1 mM EDTA, 1 mM DTT); Superdex 75 or Superdex 200 Increase columns at 4 °C; peak fractions by SDS-PAGE.
The target of assay [2] is T1, S. cerevisiae Spp381 (pre-mRNA-splicing factor suppressor of prp38-1), full-length wild type (S. cerevisiae, UniProt P38282 1-291).
T1 construct: Spp381, S. cerevisiae, UniProt P38282, ORF amplified from genomic DNA; also called scSpp381; scSpp381^FL; source: E. coli Rosetta 2 (DE3) or BL21 (DE3) RIL, purified (Ni-NTA, TEV cleavage, SEC); not shown: His6, N-terminal, cleaved
T1 sequence (looked up): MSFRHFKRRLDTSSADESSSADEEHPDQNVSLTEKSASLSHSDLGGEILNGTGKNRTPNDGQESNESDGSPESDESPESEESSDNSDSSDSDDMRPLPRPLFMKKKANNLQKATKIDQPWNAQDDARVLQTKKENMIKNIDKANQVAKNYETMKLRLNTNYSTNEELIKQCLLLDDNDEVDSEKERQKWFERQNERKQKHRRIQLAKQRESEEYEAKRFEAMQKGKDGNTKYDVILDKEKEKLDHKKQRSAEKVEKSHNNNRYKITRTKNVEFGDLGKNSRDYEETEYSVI
The assay is described as above.

Assay [3] concerns the target B2. In words: SEC; analytical gel filtration of three proteins (scSnu23 116-169, scPrp38, scSpp381 177-248) on a Superdex 75 10/300 column; fractions by SDS-PAGE.

B1: S. cerevisiae Spp381 residues 177-248 (domain or fragment, UniProt P38282 177-248, looked up)
chain: NDEVDSEKERQKWFERQNERKQKHRRIQLAKQRESEEYEAKRFEAMQKGKDGNTKYDVILDKEKEKLDHKKQ
notes: also called scSpp381^177-248; source: E. coli Rosetta 2 (DE3) or BL21 (DE3) RIL, purified (Ni-NTA, TEV cleavage, SEC); not shown: His6, N-terminal, cleaved
B1: the binding result in assay [1] is listed as “binds”.

For B2, the binding result in assay [2] is recorded as “binds”.

B3: Human MFAP1 (microfibrillar-associated protein 1) residues 267-344 (domain or fragment)
chain: not shown
notes: the minimal fragment used for crystallization of the hsPrp38-hsMFAP1 complex; source: E. coli Rosetta 2 (DE3) or BL21 (DE3) RIL, purified (Ni-NTA, TEV cleavage, SEC); not shown: His6, N-terminal, cleaved
With B3, the binding result in assay [1] is on record as “binds”.

B4: S. cerevisiae Snu23 (23 kDa small nuclear ribonucleoprotein component) residues 116-169 (domain or fragment, UniProt Q12368 116-169, looked up)
chain: LIIDIRDNDDVPQEEFELCYHNLIKDFVEVRSMETQSKRKRLLDTDVEKAKKVA
For the molecule B4, in assay [3], the binding result was “binds”.
